In the MegaScale stability set (Tsuboyama et al. 2023):

B1: HEEH_KT_rd6_0007 (parent)
chain: SIEEEIKKAEEAKEKGKTFIHGDFVATTEELLDELLKRLRKKL

Variants of: B1
Assay: folding stability dG (cDNA display proteolysis); higher = more stable
Details: PBS, room temperature

Folding stability dG [kcal/mol], by site and new letter:
E30: F 1.13, L 1.14, C 1.63, A 1.41, Y 1.15, K 1.24, P 0.673, G 0.9, D 1.17, Q 1.14, W 1.42, H 1.15, V 0.976, R 1.19, I 0.954, N 0.882, M 1.05, S 1.12, T 1.09
L39: V 0.079, T -0.05, Y 0.697, W 0.902, S 0.093, I 0.845, M 0.977, N 0.087, K 0.102, Q -0.059, F 0.806, P -0.251, H 0.059, G -0.429, R 0.516, E -0.449, A 0.168
L31: V 0.71, R 0.535, E 2, W 0.95, K 0.756, F 0.877, A 1.28, P 0.452, N 0.715, M 1.65, I 0.938, D 1.52, Q 1.75, S 0.841, T 0.882, Y 0.721, H 1.08, G 0.74
T27: Y 1.62, G 1.08, R 0.962, S 1.57, N 1.98, F 1.55, E 1.24, V 1.09, W 1.66, M 1.17, Q 0.865, A 1.27, L 1.22, I 1.11, C 1.76, P 0.51, K 1.09, D 2.16, H 1.41
V25: A 1.1, P 0.68, M 1.18, C 1.94, Q 1.07, G 0.704, T 0.907, Y 1.23, I 1.41, W 1.39, S 0.912, L 1.11, F 1.31, R 0.704, E 1.05, D 0.749, N 0.974, H 1.28, K 0.938
A26: L 1.03, E 0.506, C 1.24, F 1.2, V 0.954, D 0.604, P 0.691, G 0.7, N 0.638, K 0.515, Y 1.6, M 0.854, Q 0.685, T 0.686, W 1.24, I 1.27, R 0.603, H 0.502, S 0.724
R38: W 2, F 1.83, N 0.87, L 1.94, Y 2.01, G 0.522, I 1.73, M 1.9, Q 1.23, H 1.6, A 1.37, V 1.37, E 0.927, P -0.239, D 0.493, S 0.842, T 1.15, K 1.02
D33: W 1.44, A 1.22, N 1.27, L 1.23, E 1.34, F 1.32, T 1.1, S 1.04, G 0.853, H 1.04, C 1.98, Y 1.28, Q 0.991, P -0.325, I 1.35, K 1.23, V 1.17, M 1.17, R 1.37
L36: A 0.394, W 0.856, F 0.757, T 0.179, G 0.032, I 1.62, D -0.448, Y 0.652, P -0.108, M 0.68, H 0.249, N 0.046, R 0.531, E -0.06, S 0.185, K -0.007, Q 0.304, V 0.838
F24: W 1.22
